Where only a bound is given, the exact number is not on record here.

The test concerns the target T1, endogenous VDAC2 (voltage-dependent anion-selective channel protein 2) (human (endogenous in HONE1 and SUNE1)), P45880.
T1 chain: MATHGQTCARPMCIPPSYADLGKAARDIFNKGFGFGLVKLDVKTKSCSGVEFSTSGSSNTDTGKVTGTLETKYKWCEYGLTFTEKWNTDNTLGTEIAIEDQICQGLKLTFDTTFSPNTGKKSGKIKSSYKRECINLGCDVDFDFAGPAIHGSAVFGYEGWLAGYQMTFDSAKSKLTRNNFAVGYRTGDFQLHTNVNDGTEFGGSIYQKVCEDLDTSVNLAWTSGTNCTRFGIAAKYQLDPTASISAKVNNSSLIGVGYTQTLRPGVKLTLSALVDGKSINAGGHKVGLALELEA
As to the kind of experiment: cross-linking; NPC cells in PBS with 5 mM DSS, 37 °C, 30 min, quenched with 20 mM Tris-HCl; Western blot; 24 h after IR; WT and TRIM21-KO cells. To be noted: remark: other sources report otherwise. On the technique in general: In western blotting, separated proteins are transferred to a membrane and probed.

B1: endogenous VDAC2 (voltage-dependent anion-selective channel protein 2), P45880 1-294 (natural protein)
chain: MATHGQTCARPMCIPPSYADLGKAARDIFNKGFGFGLVKLDVKTKSCSGVEFSTSGSSNTDTGKVTGTLETKYKWCEYGLTFTEKWNTDNTLGTEIAIEDQICQGLKLTFDTTFSPNTGKKSGKIKSSYKRECINLGCDVDFDFAGPAIHGSAVFGYEGWLAGYQMTFDSAKSKLTRNNFAVGYRTGDFQLHTNVNDGTEFGGSIYQKVCEDLDTSVNLAWTSGTNCTRFGIAAKYQLDPTASISAKVNNSSLIGVGYTQTLRPGVKLTLSALVDGKSINAGGHKVGLALELEA
Take B1: the stoichiometry N – broadly, a count of units in the complex or per binding partner – was > 3.

(Values after paper PMC9935546.)
